Molecular target: T1, Purified His-tagged MYC (UniProt P01106 1-454)
T1 construct: MYC, purified recombinant protein bought from Origene; also called MYC (TP760019); source: bought: Origene (TP760019), purified
Assay: co-IP; in vitro: 5 ug of each purified protein mixed in 100 ul of 1% NP-40, 120 mM NaCl, 40 mM tris-HCl pH 7.4, 1.5 mM sodium orthovanadate, 50 mM sodium fluoride, 10 mM sodium pyrophosphate, protease inhibitors, 6 h at 4 °C, then immunoprecipitation
Settings: both partners purified

T1 sequence (P01106 whole entry): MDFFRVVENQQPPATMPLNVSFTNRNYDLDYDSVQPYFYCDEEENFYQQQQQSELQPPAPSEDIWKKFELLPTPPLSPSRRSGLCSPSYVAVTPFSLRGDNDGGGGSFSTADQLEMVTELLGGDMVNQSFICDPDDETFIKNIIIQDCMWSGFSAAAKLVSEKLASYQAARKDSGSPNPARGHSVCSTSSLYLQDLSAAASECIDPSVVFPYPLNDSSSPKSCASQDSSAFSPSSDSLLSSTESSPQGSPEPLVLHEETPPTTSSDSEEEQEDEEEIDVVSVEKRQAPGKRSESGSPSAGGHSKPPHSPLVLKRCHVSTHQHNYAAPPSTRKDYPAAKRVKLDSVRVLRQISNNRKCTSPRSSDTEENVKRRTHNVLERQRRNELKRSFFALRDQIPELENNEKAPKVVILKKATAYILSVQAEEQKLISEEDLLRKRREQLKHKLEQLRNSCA

- binding result: binds
B1: Purified GST-tagged HDAC3 (enzyme, UniProt O15379 1-428, looked up)
chain: MAKTVAYFYDPDVGNFHYGAGHPMKPHRLALTHSLVLHYGLYKKMIVFKPYQASQHDMCRFHSEDYIDFLQRVSPTNMQGFTKSLNAFNVGDDCPVFPGLFEFCSRYTGASLQGATQLNNKICDIAINWAGGLHHAKKFEASGFCYVNDIVIGILELLKYHPRVLYIDIDIHHGDGVQEAFYLTDRVMTVSFHKYGNYFFPGTGDMYEVGAESGRYYCLNVPLRDGIDDQSYKHLFQPVINQVVDFYQPTCIVLQCGADSLGCDRLGCFNLSIRGHGECVEYVKSFNIPLLVLGGGGYTVRNVARCWTYETSLLVEEAISEELPYSEYFEYFAPDFTLHPDVSTRIENQNSRQYLDQIRQTIFENLKMLNHAPSVQIHDVPADLLTYDRTDEADAEERGPEENYSRPEAPNEFYDGDHDNDKESDVEI
notes: Histone deacetylase 3, purified recombinant protein bought from Sino Biological; also called HDAC3 (11511-H20B); source: bought: Sino Biological (11511-H20B), purified
